± gives the standard deviation of the averaged measurements.
Assay: total protein half-life in vivo (active degradation + dilution); higher = more stable protein
[1] = E. coli NCM3722 delta-clpP delta-lon delta-hslV, growth: N-lim chemostat, doubling time 6 h
[2] = E. coli NCM3722 delta-clpP, growth: N-lim chemostat, doubling time 6 h
[3] = E. coli NCM3722 delta-hslV, growth: N-lim chemostat, doubling time 6 h
[4] = E. coli NCM3722 delta-lon, growth: N-lim chemostat, doubling time 6 h
[5] = E. coli NCM3722 delta-smpB, growth: N-lim chemostat, doubling time 6 h
[6] = wild type E. coli NCM3722, growth: C-lim chemostat, doubling time 6 h
[7] = wild type E. coli NCM3722, growth: C-lim chemostat, doubling time 12 h
[8] = wild type E. coli NCM3722, growth: N-lim chemostat, doubling time 6 h
[9] = wild type E. coli NCM3722, growth: N-lim chemostat, doubling time 12 h
[10] = wild type E. coli NCM3722, growth: P-lim chemostat, doubling time 6 h
[11] = wild type E. coli NCM3722, growth: P-lim chemostat, doubling time 12 h
[12] = wild type E. coli NCM3722, growth: C-lim chemostat, doubling time 3 h

Row | Sequence | total protein half-life in vivo [1] | total protein half-life in vivo [2] | total protein half-life in vivo [3] | total protein half-life in vivo [4] | total protein half-life in vivo [5] | total protein half-life in vivo [6] | total protein half-life in vivo [7] | total protein half-life in vivo [8] | total protein half-life in vivo [9] | total protein half-life in vivo [10] | total protein half-life in vivo [11] | total protein half-life in vivo [12]
1 | MQIIFGEKCVSLLRLFFAAVLMLWCAQTAAYSGQCHTTQGNPYIGVNFGVKTLEEEANTAGVVKDKFYQWNESNDYYVSCDCDKDNVRSGRWAFAADSPLVYLGDNWYKINDYLAAKVLLQVKGSSPTAVPFENVGTGGDTRWHICDPGGQRLGGQGASGNSGSFSLKILQPFVGSVVIPPMALARLYECYNIPAGDSCTTTGTPVLVYYLSGTINSLGSCSVNAGETIEVDLGDVFAANFRVVGHKPLGARTAELAIPVRCNTGNAGLVNVNLSLTATTDPSYPQAIKTSRPGVGVVVTDSQNNIISPAGGTLPLSIPDDADSIARMNVYPVSTTGVPPETGRFEATATVRINFD | 5.52 ± 2.1 h | 4.19 h | 5.902 ± 0.037 h | 6.21 ± 1.1 h | 5.24 ± 0.2 h | 5.54 ± 0.6 h | 9.76 h | 7.57 h | 11.6 ± 0.54 h | 6 h | 12 ± 1.1 h | –
2 | MQIVMFDRQSIFIHGMKISLQQRIPGVSIQGASQADELWQKLESYPEALVMLDGDQDGEFCYWLLQKTVVQFPEVKVLITATDCNKRWLQEVIHFNVLAIVPRDSTVETFALAVNSAAMGMMFLPGDWRTTPEKDIKDLKSLSARQREILTMLAAGESNKEIGRALNISTGTVKAHLESLYRRLEVKNRTQAAMMLNISS | 4.46 h | – | – | – | – | – | – | – | – | – | – | –
3 | MQKAQRIIKTYRRNRMIVCTICALVTLASTLSVRFISQRNLNQQRVVQFANHAVEELDKVLLPLQAGSEVLLPLIGLPCSVAHLPLRKQAAKLQTVRSIGLVQDGTLYCSSIFGYRNVPVVDILAELPAPQPLLRLTIDRALIKGSPVLIQWTPAAGSSNAGVMEMINIDLLTAMLLEPQLPQISSASLTVDKRHLLYGNGLVDSLPQPEDNENYQVSSQRFPFTINVNGPGATALAWHYLPTQLPLAVLLSLLVGYIAWLATAYRMSFSREINLGLAQHEFELFCQPLLNARSQQCIGVEILLRWNNPRQGWISPDVFIPIAEEHHLIVPLTRYVMAETIRQRHVFPMSSQFHVGINVAPSHFRRGVLIKDLNQYWFSAHPIQQLILEITERDALLDVDYRIARELHRKNVKLAIDDFGTGNSSFSWLETLRPDVLKIDKSFTAAIGSDAVNSTVTDIIIALGQRLNIELVAEGVETQEQAKYLRRHGVHILQGYLYAQPMPLRDFPKWLAGSQPPPARHNGHITPIMPLR | 4.94 h | 2.57 h | – | – | – | – | – | – | – | – | – | –
4 | MQKDALNNVHITDEQVLMTPEQLKAAFPLSLQQEAQIADSRKSISDIIAGRDPRLLVVCGPCSIHDPETALEYARRFKALAAEVSDSLYLVMRVYFEKPRTTVGWKGLINDPHMDGSFDVEAGLQIARKLLLELVNMGLPLATEALDPNSPQYLGDLFSWSAIGARTTESQTHREMASGLSMPVGFKNGTDGSLATAINAMRAAAQPHRFVGINQAGQVALLQTQGNPDGHVILRGGKAPNYSPADVAQCEKEMEQAGLRPSLMVDCSHGNSNKDYRRQPAVAESVVAQIKDGNRSIIGLMIESNIHEGNQSSEQPRSEMKYGVSVTDACISWEMTDALLREIHQDLNGQLTARVA | 3.13 ± 0.21 h | 1.05 ± 0.12 h | 0.859 ± 0.25 h | 3.06 ± 3 h | 0.903 ± 0.017 h | 2.79 ± 0.37 h | 3.84 ± 0.57 h | 0.94 h | 1.81 h | 1.57 h | 3.5 ± 0.6 h | 2.24 ± 0.07 h
5 | MQKFDTRTFQGLILTLQDYWARQGCTIVQPLDMEVGAGTSHPMTCLRELGPEPMAAAYVQPSRRPTDGRYGENPNRLQHYYQFQVVIKPSPDNIQELYLGSLKELGMDPTIHDIRFVEDNWENPTLGAWGLGWEVWLNGMEVTQFTYFQQVGGLECKPVTGEITYGLERLAMYIQGVDSVYDLVWSDGPLGKTTYGDVFHQNEVEQSTYNFEYADVDFLFTCFEQYEKEAQQLLALENPLPLPAYERILKAAHSFNLLDARKAISVTERQRYILRIRTLTKAVAEAYYASREALGFPMCNKDK | 6.13 ± 0.15 h | 6.28 ± 1.2 h | 6.72 ± 0.52 h | 6.54 ± 0.34 h | 4.88 ± 0.31 h | 6.44 ± 0.24 h | – | 6.04 ± 0.12 h | – | 6.78 ± 1.4 h | 13.3 ± 0.41 h | 3.4 ± 0.69 h
6 | MQKLINSVQNYAWGSKTALTELYGMENPSSQPMAELWMGAHPKSSSRVQNAAGDIVSLRDVIESDKSTLLGEAVAKRFGELPFLFKVLCAAQPLSIQVHPNKHNSEIGFAKENAAGIPMDAAERNYKDPNHKPELVFALTPFLAMNAFREFSEIVSLLQPVAGAHPAIAHFLQQPDAERLSELFASLLNMQGEEKSRALAILKSALDSQQGEPWQTIRLISEFYPEDSGLFSPLLLNVVKLNPGEAMFLFAETPHAYLQGVALEVMANSDNVLRAGLTPKYIDIPELVANVKFEAKPANQLLTQPVKQGAELDFPIPVDDFAFSLHDLSDKETTISQQSAAILFCVEGDATLWKGSQQLQLKPGESAFIAANESPVTVKGHGRLARVYNKL | 4.5 ± 0.45 h | 4.28 ± 0.05 h | 5.01 ± 0.19 h | 4.64 ± 0.25 h | 4.506 ± 0.036 h | 5.48 ± 0.18 h | 10.7 ± 0.47 h | 4.46 ± 0.15 h | 7.24 ± 0.34 h | 5.71 ± 0.53 h | 10.9 ± 0.41 h | 3.03 ± 0.032 h
7 | MQKNAAHTYAISSLLVLSLTGCAWIPSTPLVQGATSAQPVPGPTPVANGSIFQSAQPINYGYQPLFEDRRPRNIGDTLTIVLQENVSASKSSSANASRDGKTNFGFDTVPRYLQGLFGNARADVEASGGNTFNGKGGANASNTFSGTLTVTVDQVLVNGNLHVVGEKQIAINQGTEFIRFSGVVNPRTISGSNTVPSTQVADARIEYVGNGYINEAQNMGWLQRFFLNLSPM [P0A6S0] | 4.87 ± 0.27 h | 5.09 ± 0.14 h | – | – | – | 4.64 ± 0.58 h | 7.92 ± 0.56 h | 4.97 h | 9.12 h | 5.6 h | 11.5 ± 0.65 h | 2.82 ± 0.29 h
8 | MQKQAELYRGKAKTVYSTENPDLLVLEFRNDTSAGDGARIEQFDRKGMVNNKFNYFIMSKLAEAGIPTQMERLLSDTECLVKKLDMVPVECVVRNRAAGSLVKRLGIEEGIELNPPLFDLFLKNDAMHDPMVNESYCETFGWVSKENLARMKELTYKANDVLKKLFDDAGLILVDFKLEFGLYKGEVVLGDEFSPDGSRLWDKETLEKMDKDRFRQSLGGLIEAYEAVARRLGVQLD [P0A7D7] | 4.82 ± 0.52 h | 5.09 ± 0.82 h | 4.79 ± 0.36 h | 5.32 ± 0.32 h | 4.74 ± 0.15 h | 5.98 ± 0.26 h | 10.8 ± 0.71 h | 4.61 ± 0.12 h | 8 ± 0.35 h | 5.28 ± 0.41 h | 11.8 ± 0.46 h | 3.26 ± 0.21 h

Source: the supplement of paper PMC11246515
